Results published in publication PMC11471779.

Target: CapGH3b (Alloprevotella sp. MAG60)
Assay: SEC-MALS

Q: With CapGH3b (enzyme) as the substance, how does the stoichiometry N read?
A: 2
